Laboratory results as given in patent US20220144956A1 (published 2022).
Numbering of substitutions follows the chain as printed. Where two headings read alike, the source gives them in different places.

Tests used:
[1] = target: T1, human TGFßRII (antigen of the Octet experiments) (human, UniProt P37173 23-166); assay: BLI (Octet)
[2] = target: T1, human TGFßRII (antigen of the Octet …); assay: BLI (Octet); remark: listed apart in the source
Cyno = Cyno (cynomolgus monkey); assay: Octet
[3] = target: T2, His-tagged human CD5 antigen (human, UniProt P06127 25-372); assay: Octet
T2 chain: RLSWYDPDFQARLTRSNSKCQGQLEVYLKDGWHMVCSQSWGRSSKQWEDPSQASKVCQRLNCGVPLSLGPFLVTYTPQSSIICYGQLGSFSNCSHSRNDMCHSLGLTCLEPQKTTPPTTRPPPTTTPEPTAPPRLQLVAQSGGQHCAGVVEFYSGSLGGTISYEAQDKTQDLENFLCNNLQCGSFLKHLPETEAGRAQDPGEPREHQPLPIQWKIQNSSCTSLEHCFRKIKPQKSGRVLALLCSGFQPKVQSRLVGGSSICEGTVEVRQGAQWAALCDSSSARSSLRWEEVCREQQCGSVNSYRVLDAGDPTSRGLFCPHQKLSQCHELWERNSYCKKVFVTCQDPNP

[4] = target: T1, human TGFßRII (antigen of the Octet …)

T1 sequence (P37173 23-166): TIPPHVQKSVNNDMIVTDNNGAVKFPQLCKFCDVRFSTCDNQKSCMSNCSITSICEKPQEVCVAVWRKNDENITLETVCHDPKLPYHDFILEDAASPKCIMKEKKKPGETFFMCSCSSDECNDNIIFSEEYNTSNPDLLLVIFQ

B1: H1.21 L1 XENP35103 (antibody, V domains shown)
VH: QLQVQESGPGLVKPSETLSLTCTVSGGSISNSAFSWGWIRQPPGKGLEWIGSFYYGEKTYYNPSLKSRATISIDTSKSQFSLKLSSVTAADTAVYYCPRGPTMIRGVIDSWGQGTLVTVSS
VL: EIVLTQSPATLSLSPGERATLSCRASQSVRSYLAWYQQKPGQAPRLLIYDASNRATGIPARFSGSGSGTDFTLTISSLEPEDFAVYYCQQRSNWPPTFGQGTKVEIK
- Kd [1]: 0.374 nM

B2: H1.1 L1 XENP34288 (antibody, V domains shown)
VH: B1 VH with A33Y, M103V
VL: B1 VL
- Kd [1]: 0.352 nM

B3: H1 L1.56 XENP34619 (antibody, V domains shown)
VH: B1 VH with A33Y
VL: B1 VL with P96L
- Kd [2]: 0.001 nM

B4: H1 L1 XENP34287 (antibody, V domains shown)
VH: B1 VH with A33Y
VL: B1 VL
- Kd [1]: 0.112 nM

B5: H1 L1.60 XENP34623 (antibody, V domains shown)
VH: B1 VH with A33Y
VL: B1 VL with Q100P
- Kd [2]: 0.888 nM

B6: H1 L1.55 XENP34618 (antibody, V domains shown)
VH: B1 VH with A33Y
VL: B1 VL with P96I
- Kd [2]: 38 nM

B7: XENP37385 – αCD5 (Cd5-A) x αTGFßRII (bispecific antibody)
heavy: EVQLKESGAELVRPGGSVKISCKGSGYTFTNFAIHWVKQSHIKTLEWIGLISTSSGDVSYNQKFKDKATMTVDKSSSTAYMELARLTSEDSAIYYCARHYGANNYFDYWGQGTLVTVSSASTKGPSVFPLAPSSKSTSGGTAALGCLVKDYFPEPVTVSWNSGALTSGVHTFPAVLQSSGLYSLSSVVTVPSSSLGTQTYICNVNHKPSDTKVDKKVEPKSCDKTHTCPPCPAPPVAGPSVFLFPPKPKDTLMISRTPEVTCVVVDVKHEDPEVKFNWYVDGVEVHNAKTKPREEEYNSTYRVVSVLTVLHQDWLNGKEYKCKVSNKALPAPIEKTISKAKGQPREPQVYTLPPSREEMTKNQVSLTCDVSGFYPSDIAVEWESDGQPENNYKTTPPVLDSDGSFFLYSKLTVDKSRWEQGDVFSCSVMHEALHNHYTQKSLSLSPGK
scFv-Fc: QLQVQESGPGLVKPSETLSLTCTVSGGSISNSYFSWGWIRQPPGKGLEWIGSFYYGEKTYYNPSLKSRATISIDTSKSQFSLKLSSVTAADTAVYYCPRGPTVIRGVIDSWGQGTLVTVSSGKPGSGKPGSGKPGSGKPGSEIVLTQSPATLSLSPGERATLSCRASQSVRSYLAWYQQKPGQAPRLLIYDASNRATGIPARFSGSGSGTDFTLTISSLEPEDFAVYYCQQRSNWPPTFGQGTKVEIKEPKSSDKTHTCPPCPAPPVAGPSVFLFPPKPKDTLMISRTPEVTCVVVDVKHEDPEVKFNWYVDGVEVHNAKTKPREEQYNSTYRVVSVLTVLHQDWLNGKEYKCKVSNKALPAPIEKTISKAKGQPREPQVYTLPPSREQMTKNQVKLTCLVKGFYPSDIAVEWESNGQPENNYKTTPPVLDSDGSFFLYSKLTVDKSRWQQGNVFSCSVMHEALHNHYTQKSLSLSPGK
light: EIVLTQSPTIMSASPGEQVTMTCRTNSSVSSSYLHWYQQKSGASPKLWIYGTSNLASGVPTRFSGSGSGTSYSLTISSVEAGDAATYFCQQYSGYPLTFGGGTKVEIKRTVAAPSVFIFPPSDEQLKSGTASVVCLLNNFYPREAKVQWKVDNALQSGNSQESVTEQDSKDSTYSLSSTLTLSKADYEKHKVYACEVTHQGLSSPVTKSFNRGEC
- Kd (Cyno): 11.3 nM

B8: XENP35399 – αCD5 (5D7) x αTGFßRII (bispecific antibody)
heavy: EVQLVESGGGVVQPGRSLRLSCTFSGFSLSTSGMGVGWIRQAPGKGLEWVAHIWWDDDVYYNPSLKSRLTITKDASTDTVYMELSSLRSEDTAVYYCVRRRATGTGFDYWGQGTLVTVSSASTKGPSVFPLAPSSKSTSGGTAALGCLVKDYFPEPVTVSWNSGALTSGVHTFPAVLQSSGLYSLSSVVTVPSSSLGTQTYICNVNHKPSDTKVDKKVEPKSCDKTHTCPPCPAPPVAGPSVFLFPPKPKDTLMISRTPEVTCVVVDVKHEDPEVKFNWYVDGVEVHNAKTKPREEEYNSTYRVVSVLTVLHQDWLNGKEYKCKVSNKALPAPIEKTISKAKGQPREPQVYTLPPSREEMTKNQVSLTCDVSGFYPSDIAVEWESDGQPENNYKTTPPVLDSDGSFFLYSKLTVDKSRWEQGDVFSCSVMHEALHNHYTQKSLSLSPGK
scFv-Fc: B7 scFv-Fc
light: NIVMTQSPSSLSASVGDRVTITCQASQDVGTAVAWYQQKPDQSPKLLIYWTSTRHTGVPDRFTGSGSGTDFTLTISSLQPEDIATYFCHQYNSYNTFGSGTKLEIKRTVAAPSVFIFPPSDEQLKSGTASVVCLLNNFYPREAKVQWKVDNALQSGNSQESVTEQDSKDSTYSLSSTLTLSKADYEKHKVYACEVTHQGLSSPVTKSFNRGEC
- Kd (Cyno): 72 nM

B9: XENP37388 (bispecific antibody)
heavy: QVTLKESGAELVRPGASVKLSCKASGYSFTSYWMNWVKQRPGQGLEWIGMIHPSDSETRLNQKFKDKATLTVDKSSSTAYMQLSSPTSEDSAVYYCARWGDHDDAMDFWGQGTMVTVSSASTKGPSVFPLAPSSKSTSGGTAALGCLVKDYFPEPVTVSWNSGALTSGVHTFPAVLQSSGLYSLSSVVTVPSSSLGTQTYICNVNHKPSDTKVDKKVEPKSCDKTHTCPPCPAPPVAGPSVFLFPPKPKDTLMISRTPEVTCVVVDVKHEDPEVKFNWYVDGVEVHNAKTKPREEEYNSTYRVVSVLTVLHQDWLNGKEYKCKVSNKALPAPIEKTISKAKGQPREPQVYTLPPSREEMTKNQVSLTCDVSGFYPSDIAVEWESDGQPENNYKTTPPVLDSDGSFFLYSKLTVDKSRWEQGDVFSCSVMHEALHNHYTQKSLSLSPGK
scFv-Fc: B7 scFv-Fc
light: DIVLTQSPASLSASVGESVTITCRPSENIYGYFAWYQQRQGKSPQLLVYNAKTLAEGVPSRFSGSGSGTHFSLKINSLQPEDFGTYYCQHHYGTPFTFGPGTKVDIKRTVAAPSVFIFPPSDEQLKSGTASVVCLLNNFYPREAKVQWKVDNALQSGNSQESVTEQDSKDSTYSLSSTLTLSKADYEKHKVYACEVTHQGLSSPVTKSFNRGEC
- Kd [3]: 2.75 nM

B10: XENP37388 – αCD5 (Cd5-B) x αTGFßRII (bispecific antibody)
heavy: B9 heavy
scFv-Fc: B7 scFv-Fc
light: B9 light
- Kd (Cyno): 0.74 nM

B11: XENP36132 (bispecific antibody)
heavy: B8 heavy
scFv-Fc: B7 scFv-Fc with S35Y, V103M
light: B8 light
- Kd [4]: 6.1 nM

B12: XENP37385 (bispecific antibody)
heavy: B7 heavy
scFv-Fc: B7 scFv-Fc
light: B7 light
- Kd [3]: 6.67 nM
